Molecular target: T1, [4Fe–4S]-TtuA (tRNA-thiolation enzyme TtuA from Thermus thermophilus HB27, reconstituted with a [4Fe–4S] … (Thermus thermophilus (HB27 strain), UniProt Q72LF3 1-321)
T1 construct: TtuA, tRNA-thiolation enzyme, Thermus thermophilus HB27; Carries a [4Fe–4S] cluster with the unique (non-cysteine-chelated) Fe; same polypeptide as m2, only the cofactor differs; also called TthTtuA; reconstituted TtuA; source: [4Fe–4S] reconstituted with DTT, FeCl3 and Na2S
T1 sequence (looked up): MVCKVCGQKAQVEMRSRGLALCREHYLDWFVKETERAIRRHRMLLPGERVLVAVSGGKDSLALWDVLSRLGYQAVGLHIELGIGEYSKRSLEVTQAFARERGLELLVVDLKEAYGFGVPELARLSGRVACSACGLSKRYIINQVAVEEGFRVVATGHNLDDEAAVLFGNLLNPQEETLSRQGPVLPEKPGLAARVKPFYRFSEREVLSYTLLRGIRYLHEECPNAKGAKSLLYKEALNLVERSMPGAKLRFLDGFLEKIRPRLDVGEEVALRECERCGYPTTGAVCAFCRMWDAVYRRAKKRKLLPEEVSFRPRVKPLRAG
Test: EPR spectroscopy; TtuA mixed with TtuB–COSH to a final concentration of 0.5 mM, 25 °C for 5 min, strictly anaerobic; then 5-fold molar excess dithionite, 25 °C for 10 min, frozen; CW X-band EPR (~9.59 GHz) at 12 K for [4Fe–4S]1+ and 40 K for [3Fe–4S]1+; reads the Fe–S cluster only
Settings: both partners purified

- binding result: binds
B1: TtuB–COSH (sulfur donor protein TtuB from Thermus thermophilus HB27 with a C-terminal thiocarboxylate) (natural protein, Thermus thermophilus (HB27 strain), UniProt Q72LF4 1-65, looked up)
chain: MRVVLRLPERKEVEVKGNRPLREVLEELGLNPETVVAVRGEELLTLEDEVREEDTLEVLSAISGG
modifications: not fully specified (C-terminus)
notes: TtuB, sulfur donor (sulfur carrier) protein, Thermus thermophilus HB27; source: E. coli B834 (DE3), pTYB1, purified on chitin resin; intein cleaved with 50 mM ammonium sulfide; not shown: intein, C-terminal, cleaved
